# Biological target: the molecule itself
# Assay: SEC + other: diffusion NMR
protein,measurement,value
"full-length, wild-type phosphate starvation response like protein-4 (PHL4) (natural protein, Arabidopsis, UniProt Q8GXC2 1-397, looked up) MIPNDDDDANSMKNYPLNDDDANSMKNYPLNDDDANSMENYPLRSIPTELSHTCSLIPPSLPNPSEAAADMSFNSELNQIMARPCDMLPANGGAVGHNPFLEPGFNCPETTDWIPSPLPHIYFPSGSPNLIMEDGVIDEIHKQSDLPLWYDDLITTDEDPLMSSILGDLLLDTNFNSASKVQQPSMQSQIQQPQAVLQQPSSCVELRPLDRTVSSNSNNNSNSNNAAAAAKGRMRWTPELHEVFVDAVNQLGGSNEATPKGVLKHMKVEGLTIFHVKSHLQKYRTAKYIPVPSEGSPEARLTPLEQITSDDTKRGIDITETLRIQMEHQKKLHEQLESLRTMQLRIEEQGKALLMMIEKQNMGFGGPEQGEKTSAKTPENGSEESESPRPKRPRNEE",stoichiometry N,4

# — paper PMC11244893 (bioRxiv, 2024)
